Measurements reported in article PMC4974071.

T1: BCL11A-L (long isoform of BCL11A), wild-type, Q9H165-2
T1 chain: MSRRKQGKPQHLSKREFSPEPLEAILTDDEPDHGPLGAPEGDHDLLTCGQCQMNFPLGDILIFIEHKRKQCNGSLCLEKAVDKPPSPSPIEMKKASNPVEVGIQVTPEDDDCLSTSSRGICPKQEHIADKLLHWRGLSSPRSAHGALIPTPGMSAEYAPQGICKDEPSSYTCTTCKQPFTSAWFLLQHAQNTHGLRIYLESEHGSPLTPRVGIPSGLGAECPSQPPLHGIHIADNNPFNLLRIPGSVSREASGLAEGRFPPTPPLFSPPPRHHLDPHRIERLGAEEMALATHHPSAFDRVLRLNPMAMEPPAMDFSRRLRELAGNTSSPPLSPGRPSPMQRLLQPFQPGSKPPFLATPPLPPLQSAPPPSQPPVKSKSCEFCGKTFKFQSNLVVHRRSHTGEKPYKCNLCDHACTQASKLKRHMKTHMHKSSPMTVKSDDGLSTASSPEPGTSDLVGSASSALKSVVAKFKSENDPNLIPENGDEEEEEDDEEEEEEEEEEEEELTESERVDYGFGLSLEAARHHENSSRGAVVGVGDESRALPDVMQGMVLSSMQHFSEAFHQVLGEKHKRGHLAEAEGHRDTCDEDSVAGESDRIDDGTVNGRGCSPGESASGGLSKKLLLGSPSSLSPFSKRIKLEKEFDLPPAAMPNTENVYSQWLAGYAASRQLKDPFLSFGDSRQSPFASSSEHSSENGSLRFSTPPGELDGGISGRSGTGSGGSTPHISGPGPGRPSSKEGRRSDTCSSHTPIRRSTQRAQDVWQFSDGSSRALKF

T2: BCL11A-S (short isoform of BCL11A), wild-type, Q9H165-3
T2 chain: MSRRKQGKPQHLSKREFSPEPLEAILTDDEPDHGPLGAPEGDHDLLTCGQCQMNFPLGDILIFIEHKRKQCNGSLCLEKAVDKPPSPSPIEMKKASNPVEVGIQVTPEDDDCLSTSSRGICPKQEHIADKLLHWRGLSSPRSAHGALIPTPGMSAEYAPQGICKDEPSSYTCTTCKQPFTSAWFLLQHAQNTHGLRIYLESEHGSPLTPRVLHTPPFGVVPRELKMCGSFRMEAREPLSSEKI


What was measured:
[1] = biological target: T1, BCL11A-L (long isoform of BCL11A), …; experiment: BRET assay; details: chain shown with the change; HEK293 cells; donor Renilla luciferase fusion, acceptor YFP fusion; n = 3; parent: est. 0.30; read off a plot
[2] = biological target: T2, BCL11A-S (short isoform of BCL11A), …; experiment: BRET assay; details: chain shown with the change; HEK293 cells; donor Renilla luciferase fusion, acceptor YFP fusion; n = 3; parent: est. 0.36; read off a plot

response [1]	response [2]	Binder
0.11	0.013	BCL11A-L (long isoform of BCL11A), wild-type, Q9H165-2 p.His66Gln (protein) MSRRKQGKPQHLSKREFSPEPLEAILTDDEPDHGPLGAPEGDHDLLTCGQCQMNFPLGDILIFIEQKRKQCNGSLCLEKAVDKPPSPSPIEMKKASNPVEVGIQVTPEDDDCLSTSSRGICPKQEHIADKLLHWRGLSSPRSAHGALIPTPGMSAEYAPQGICKDEPSSYTCTTCKQPFTSAWFLLQHAQNTHGLRIYLESEHGSPLTPRVGIPSGLGAECPSQPPLHGIHIADNNPFNLLRIPGSVSREASGLAEGRFPPTPPLFSPPPRHHLDPHRIERLGAEEMALATHHPSAFDRVLRLNPMAMEPPAMDFSRRLRELAGNTSSPPLSPGRPSPMQRLLQPFQPGSKPPFLATPPLPPLQSAPPPSQPPVKSKSCEFCGKTFKFQSNLVVHRRSHTGEKPYKCNLCDHACTQASKLKRHMKTHMHKSSPMTVKSDDGLSTASSPEPGTSDLVGSASSALKSVVAKFKSENDPNLIPENGDEEEEEDDEEEEEEEEEEEEELTESERVDYGFGLSLEAARHHENSSRGAVVGVGDESRALPDVMQGMVLSSMQHFSEAFHQVLGEKHKRGHLAEAEGHRDTCDEDSVAGESDRIDDGTVNGRGCSPGESASGGLSKKLLLGSPSSLSPFSKRIKLEKEFDLPPAAMPNTENVYSQWLAGYAASRQLKDPFLSFGDSRQSPFASSSEHSSENGSLRFSTPPGELDGGISGRSGTGSGGSTPHISGPGPGRPSSKEGRRSDTCSSHTPIRRSTQRAQDVWQFSDGSSRALKF
0.11	0.001	BCL11A-L (long isoform of BCL11A), wild-type, Q9H165-2 p.Thr47Pro (protein) MSRRKQGKPQHLSKREFSPEPLEAILTDDEPDHGPLGAPEGDHDLLPCGQCQMNFPLGDILIFIEHKRKQCNGSLCLEKAVDKPPSPSPIEMKKASNPVEVGIQVTPEDDDCLSTSSRGICPKQEHIADKLLHWRGLSSPRSAHGALIPTPGMSAEYAPQGICKDEPSSYTCTTCKQPFTSAWFLLQHAQNTHGLRIYLESEHGSPLTPRVGIPSGLGAECPSQPPLHGIHIADNNPFNLLRIPGSVSREASGLAEGRFPPTPPLFSPPPRHHLDPHRIERLGAEEMALATHHPSAFDRVLRLNPMAMEPPAMDFSRRLRELAGNTSSPPLSPGRPSPMQRLLQPFQPGSKPPFLATPPLPPLQSAPPPSQPPVKSKSCEFCGKTFKFQSNLVVHRRSHTGEKPYKCNLCDHACTQASKLKRHMKTHMHKSSPMTVKSDDGLSTASSPEPGTSDLVGSASSALKSVVAKFKSENDPNLIPENGDEEEEEDDEEEEEEEEEEEEELTESERVDYGFGLSLEAARHHENSSRGAVVGVGDESRALPDVMQGMVLSSMQHFSEAFHQVLGEKHKRGHLAEAEGHRDTCDEDSVAGESDRIDDGTVNGRGCSPGESASGGLSKKLLLGSPSSLSPFSKRIKLEKEFDLPPAAMPNTENVYSQWLAGYAASRQLKDPFLSFGDSRQSPFASSSEHSSENGSLRFSTPPGELDGGISGRSGTGSGGSTPHISGPGPGRPSSKEGRRSDTCSSHTPIRRSTQRAQDVWQFSDGSSRALKF
0.065	0.009	BCL11A-L (long isoform of BCL11A), wild-type, Q9H165-2 p.Cys48Phe (protein) MSRRKQGKPQHLSKREFSPEPLEAILTDDEPDHGPLGAPEGDHDLLTFGQCQMNFPLGDILIFIEHKRKQCNGSLCLEKAVDKPPSPSPIEMKKASNPVEVGIQVTPEDDDCLSTSSRGICPKQEHIADKLLHWRGLSSPRSAHGALIPTPGMSAEYAPQGICKDEPSSYTCTTCKQPFTSAWFLLQHAQNTHGLRIYLESEHGSPLTPRVGIPSGLGAECPSQPPLHGIHIADNNPFNLLRIPGSVSREASGLAEGRFPPTPPLFSPPPRHHLDPHRIERLGAEEMALATHHPSAFDRVLRLNPMAMEPPAMDFSRRLRELAGNTSSPPLSPGRPSPMQRLLQPFQPGSKPPFLATPPLPPLQSAPPPSQPPVKSKSCEFCGKTFKFQSNLVVHRRSHTGEKPYKCNLCDHACTQASKLKRHMKTHMHKSSPMTVKSDDGLSTASSPEPGTSDLVGSASSALKSVVAKFKSENDPNLIPENGDEEEEEDDEEEEEEEEEEEEELTESERVDYGFGLSLEAARHHENSSRGAVVGVGDESRALPDVMQGMVLSSMQHFSEAFHQVLGEKHKRGHLAEAEGHRDTCDEDSVAGESDRIDDGTVNGRGCSPGESASGGLSKKLLLGSPSSLSPFSKRIKLEKEFDLPPAAMPNTENVYSQWLAGYAASRQLKDPFLSFGDSRQSPFASSSEHSSENGSLRFSTPPGELDGGISGRSGTGSGGSTPHISGPGPGRPSSKEGRRSDTCSSHTPIRRSTQRAQDVWQFSDGSSRALKF
